# Laboratory results: patent US8290713 (LONZA BIOLOGICS, dated 2012)
# Non-standard residues stand in square brackets, D forms with d.
# B1: ZP-0229 (peptide)
# peptide: H-[dQ][dY][dS][dV][dL][dV]-NH2
# SMILES: CC(C)C[C@@H](NC(=O)[C@H](NC(=O)[C@@H](CO)NC(=O)[C@@H](Cc1ccc(O)cc1)NC(=O)[C@H](N)CCC(N)=O)C(C)C)C(=O)N[C@@H](C(N)=O)C(C)C
# B2: ZP-0221 (peptide)
# peptide: H-[dQ][dY][dT][dV][dL][dI]-NH2
# SMILES: CC[C@@H](C)[C@@H](NC(=O)[C@@H](CC(C)C)NC(=O)[C@H](NC(=O)[C@H](NC(=O)[C@@H](Cc1ccc(O)cc1)NC(=O)[C@H](N)CCC(N)=O)[C@H](C)O)C(C)C)C(N)=O
# B3: ZP-0228 (peptide)
# peptide: H-[dP][dY][dS][dV][dL][dI]-NH2
# SMILES: CC[C@@H](C)[C@@H](NC(=O)[C@@H](CC(C)C)NC(=O)[C@H](NC(=O)[C@@H](CO)NC(=O)[C@@H](Cc1ccc(O)cc1)NC(=O)[C@H]1CCCN1)C(C)C)C(N)=O
# B4: ZP-0215 (peptide)
# peptide: H-[dQ][dY][dS][dV][dL][dI]-NH2
# SMILES: CC[C@@H](C)[C@@H](NC(=O)[C@@H](CC(C)C)NC(=O)[C@H](NC(=O)[C@@H](CO)NC(=O)[C@@H](Cc1ccc(O)cc1)NC(=O)[C@H](N)CCC(N)=O)C(C)C)C(N)=O
# B5: ZP-0222 (peptide)
# peptide: H-[dQ][dY][dK][dV][dL][dI]-NH2
# SMILES: CC[C@@H](C)[C@@H](NC(=O)[C@@H](CC(C)C)NC(=O)[C@H](NC(=O)[C@@H](CCCCN)NC(=O)[C@@H](Cc1ccc(O)cc1)NC(=O)[C@H](N)CCC(N)=O)C(C)C)C(N)=O
# Target: α-synuclein (UniProt P37840 1-140)
# Experiment: cell-based or functional assay
# Note: test concentration or dose not given here.
% decrease in ThT fluorescence [%],% decrease in rate of aggregation [%],% increase in Lag phase [%],Binder
17.8,24.3,33.5,B1
24.7,22.8,-22.4,B2
40.8,46.2,38.2,B3
27.6,17.5,3.1,B4
42.3,34.3,7.7,B5
